# Test results reported in US20100184658A1 (published 2010).
# T1: PRKG2 (PKG2) (UniProt Q13237 1-762, limits assumed)
# T1 sequence (looked up): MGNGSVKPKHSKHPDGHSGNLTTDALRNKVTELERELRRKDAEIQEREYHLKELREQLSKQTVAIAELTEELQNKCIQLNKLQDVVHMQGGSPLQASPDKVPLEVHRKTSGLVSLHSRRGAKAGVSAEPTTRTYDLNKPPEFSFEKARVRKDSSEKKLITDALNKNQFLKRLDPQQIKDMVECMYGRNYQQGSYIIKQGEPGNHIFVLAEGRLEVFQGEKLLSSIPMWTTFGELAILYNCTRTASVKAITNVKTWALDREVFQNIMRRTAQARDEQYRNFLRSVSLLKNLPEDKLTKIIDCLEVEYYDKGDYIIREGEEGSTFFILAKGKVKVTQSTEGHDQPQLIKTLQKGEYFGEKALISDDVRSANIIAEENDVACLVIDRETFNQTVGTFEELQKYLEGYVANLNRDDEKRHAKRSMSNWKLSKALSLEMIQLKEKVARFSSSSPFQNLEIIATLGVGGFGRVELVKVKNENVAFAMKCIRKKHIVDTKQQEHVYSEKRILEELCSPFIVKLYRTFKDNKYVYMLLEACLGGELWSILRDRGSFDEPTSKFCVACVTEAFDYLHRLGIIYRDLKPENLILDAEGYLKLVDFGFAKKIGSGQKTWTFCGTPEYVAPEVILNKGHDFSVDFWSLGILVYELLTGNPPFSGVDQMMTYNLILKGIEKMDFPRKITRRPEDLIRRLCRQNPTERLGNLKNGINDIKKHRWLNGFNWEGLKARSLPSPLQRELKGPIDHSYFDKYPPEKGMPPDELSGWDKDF
# T2: CAMK4 (CaMKIV) Calcium/calmodulin-dependent protein kinase IV (UniProt Q16566 1-473, limits assumed)
# T2 sequence (looked up): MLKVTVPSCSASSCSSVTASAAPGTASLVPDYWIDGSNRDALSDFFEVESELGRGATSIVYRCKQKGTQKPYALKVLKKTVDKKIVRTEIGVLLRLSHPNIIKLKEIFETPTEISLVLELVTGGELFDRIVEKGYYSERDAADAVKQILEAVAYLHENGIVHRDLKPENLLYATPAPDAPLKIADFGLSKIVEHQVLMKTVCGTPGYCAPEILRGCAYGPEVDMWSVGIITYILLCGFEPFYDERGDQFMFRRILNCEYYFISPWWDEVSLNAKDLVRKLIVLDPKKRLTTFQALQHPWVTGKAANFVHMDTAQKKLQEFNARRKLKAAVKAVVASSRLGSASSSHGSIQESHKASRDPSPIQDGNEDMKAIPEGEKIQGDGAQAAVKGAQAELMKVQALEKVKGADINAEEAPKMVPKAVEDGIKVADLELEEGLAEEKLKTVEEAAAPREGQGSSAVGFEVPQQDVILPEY
# T3: ADRBK1 (GRK2) (UniProt P25098 1-689, limits assumed)
# T3 sequence (looked up): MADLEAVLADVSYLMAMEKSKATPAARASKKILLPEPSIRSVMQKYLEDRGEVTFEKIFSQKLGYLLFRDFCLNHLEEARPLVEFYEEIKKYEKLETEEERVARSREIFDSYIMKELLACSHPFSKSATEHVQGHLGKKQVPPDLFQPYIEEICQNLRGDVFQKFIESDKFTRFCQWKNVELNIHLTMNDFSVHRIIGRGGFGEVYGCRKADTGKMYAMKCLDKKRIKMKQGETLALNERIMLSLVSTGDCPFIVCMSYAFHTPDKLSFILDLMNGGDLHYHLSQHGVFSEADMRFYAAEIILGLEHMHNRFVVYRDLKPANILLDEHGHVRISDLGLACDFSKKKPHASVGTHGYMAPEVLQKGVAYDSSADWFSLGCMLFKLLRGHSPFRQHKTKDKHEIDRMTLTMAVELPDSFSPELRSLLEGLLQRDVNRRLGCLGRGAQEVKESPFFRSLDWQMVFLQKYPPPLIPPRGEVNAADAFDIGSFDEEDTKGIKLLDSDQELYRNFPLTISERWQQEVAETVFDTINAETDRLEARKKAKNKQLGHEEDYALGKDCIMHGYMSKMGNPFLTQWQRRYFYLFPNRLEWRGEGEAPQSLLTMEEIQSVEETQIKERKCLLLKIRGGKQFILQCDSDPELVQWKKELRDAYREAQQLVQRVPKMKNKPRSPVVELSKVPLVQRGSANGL
# Columns and labels:
# Experiment in all cases: cell-based or functional assay
# GRK5 = GRK5 (UniProt P34947 1-590, limits assumed)
# [1] = biological target: PAK4 P21(CDKN1A)-activated kinase 4 (UniProt O96013 1-591, limits assumed)
# SRMS (Srm) = SRMS (Srm) (UniProt Q9H3Y6 1-488, limits assumed)
# [2] = biological target: MAPK8 (JNK1) Mitogen-activated protein kinase 8 (UniProt P45983 1-427, limits assumed)
# PRKCD (PKC delta) = PRKCD (PKC delta) (UniProt Q05655 1-676, limits assumed)
# [3] = biological target: RAF1 (cRAF) Y340D Y341D c-Raf (UniProt P04049 306-648, limits assumed)
# PRKG2 (PKG2) = biological target: T1, PRKG2 (PKG2)
# MAP4K4 (HGK) = MAP4K4 (HGK) (UniProt O95819 1-328, limits assumed)
# [4] = biological target: STK24 (MST3) Serine/threonine kinase 24 (STE20 homolog, yeast) (UniProt Q9Y6E0 1-443, limits assumed)
# [5] = biological target: T2, CAMK4 (CaMKIV) …
# ADRBK1 (GRK2) = biological target: T3, ADRBK1 (GRK2)
# MAPKAPK3 = MAPKAPK3 (UniProt Q16644 1-382, limits assumed)
# AKT2 (PKB beta) = AKT2 (PKB beta) (human (printed as (h)), UniProt P31751 1-481, limits assumed)
# [6] = biological target: MAP3K8 (COT) Mitogen-activated protein kinase kinase kinase 8 (UniProt P41279 30-397, limits assumed)
# PRKCA (PKC alpha) = PRKCA (PKC alpha) (UniProt P17252 1-672, limits assumed)
# Also: test concentration or dose not given here.
binder,measurement,setting,value
SGRPPMIVWFNRPFLIAVSHTHGQTILFMAKVINPVGA [D3 peptide],% Inhibition mean,GRK5,50.8%
same,% Inhibition mean,[1],47%
same,% Inhibition mean,SRMS (Srm),46.5%
same,% Inhibition mean,[2],89%
same,% Inhibition mean,PRKCD (PKC delta),57.4%
same,% Inhibition mean,[3],94.6%
same,% Inhibition mean,PRKG2 (PKG2),101%
same,% Inhibition mean,MAP4K4 (HGK),100%
same,% Inhibition mean,[4],98.6%
same,% Inhibition mean,[5],99.6%
same,% Inhibition mean,ADRBK1 (GRK2),56.1%
same,% Inhibition mean,MAPKAPK3,64.1%
same,% Inhibition mean,AKT2 (PKB beta),67.7%
same,% Inhibition mean,[6],98.6%
same,% Inhibition mean,PRKCA (PKC alpha),45.1%
